Reference: article PMC9352680, “A comprehensive thermodynamic model for RNA binding by the Saccharomyces cerevisiae Pumilio protein PUF4”

Molecular target: T1, PUF4 RNA-binding domain (Saccharomyces cerevisiae, UniProt P25339 537-888)
T1 sequence: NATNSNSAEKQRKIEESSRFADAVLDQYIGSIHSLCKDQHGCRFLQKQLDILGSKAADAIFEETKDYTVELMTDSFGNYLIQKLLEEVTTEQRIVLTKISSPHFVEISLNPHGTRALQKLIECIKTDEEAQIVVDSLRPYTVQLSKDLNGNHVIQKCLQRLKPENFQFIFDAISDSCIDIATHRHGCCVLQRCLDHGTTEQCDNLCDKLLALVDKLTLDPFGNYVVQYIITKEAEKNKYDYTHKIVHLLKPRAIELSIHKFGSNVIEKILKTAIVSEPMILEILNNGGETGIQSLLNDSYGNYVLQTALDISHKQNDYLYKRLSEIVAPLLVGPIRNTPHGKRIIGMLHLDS
Test: Mg; RNA-MaP; 20 mM Na-HEPES pH 7.4, 30 mM KOAc, 0.75 mM MgCl2, 0.1% Tween-20, 5% glycerol, 0.1 mg/mL BSA, 2 mM DTT; 25 C; 0.0125-409.6 nM protein
Details: tags: N-His6-TEV cleaved; C-SNAP kept, Cy3B-labelled; label: tethered on chip by stalled RNA polymerase

B1: Id_ii_S4_P5E.3_K5.2_C5.2_[C-2T]_[T-1G]_H5.2_A5.1_F5.1_T5.2_[T11G]_[A12T] (ssRNA)
RNA: UUUGACAACUGAUCGUUCUUUCUUGUAUAUUAUUAGUUUCUUUCUCGAUCAGUUGUCUUU
In the case of B1, the Kd is reported as 1 nM.

B2: Id_ii_S4_P5E.3_K5.2_C5.2_[C-2A]_H5.2_A5.1_F5.1_T5.2_[T11C] (ssRNA)
RNA: UUUGACAACUGAUCGUUCUUUCUAUUAUAUUAUUACAUUCUUUCUCGAUCAGUUGUCUUU
With B2 the Kd was 203 nM.

B3: Id_ii_S4_P5E.3_K5.2_C5.2_[C-2T]_[T-1G]_H5.2_A5.1_F5.1_T5.2_[T11G]_[A12C] (ssRNA)
RNA: UUUGACAACUGAUCGUUCUUUCUUGUAUAUUAUUAGCUUCUUUCUCGAUCAGUUGUCUUU
Work on B3 yielded a Kd of 1.12 nM.

B4: Id_ii_S4_P5E.2_K5.1_C5.2_[T-1A]_H5.1_A5.1_F5.1_T5.2_[A12T] (ssRNA)
RNA: UUUGACAACUGAUCGUUCUUUCUCAUGUAUUAUUAUUUUCUUUCUCGAUCAGUUGUCUUU
In the case of B4, the Kd is reported as 2.17 nM.

B5: Id_ii_S4_P5E.3_K5.2_C5.2_[T-1A]_H5.2_A5.1_F5.1_T5.2_[T11A]_[A12G] (ssRNA)
RNA: UUUGACAACUGAUCGUUCUUUCUCAUAUAUUAUUAAGUUCUUUCUCGAUCAGUUGUCUUU
With B5 the Kd was over 2300 nM.

B6: Id_ii_S4_P5E.3_K5.2_C5.2_[C-2G]_H5.2_A5.1_F5.1_T5.2_[A12T] (ssRNA)
RNA: UUUGACAACUGAUCGUUCUUUCUGUUAUAUUAUUAUUUUCUUUCUCGAUCAGUUGUCUUU
In the case of B6, the Kd is reported as 28.2 nM.

B7: Id_ii_S4_P5E.3_K5.2_C5.2_[C-2T]_[T-1G]_H5.2_A5.1_F5.1_T5.2_[A12T] (ssRNA)
RNA: UUUGACAACUGAUCGUUCUUUCUUGUAUAUUAUUAUUUUCUUUCUCGAUCAGUUGUCUUU
Work on B7 yielded a Kd of 0.445 nM.

B8: Id_ii_S4_P5E.2_K5.1_C5.2_[T-1G]_H5.1_A5.1_F5.1_T5.2_[T11G]_[A12T] (ssRNA)
RNA: UUUGACAACUGAUCGUUCUUUCUCGUGUAUUAUUAGUUUCUUUCUCGAUCAGUUGUCUUU
B8 showed a Kd of 1.95 nM.

B9: Id_ii_S4_P5E.3_K5.2_C5.2_[C-2T]_[T-1C]_H5.2_A5.1_F5.1_T5.2_[T11C]_[A12G] (ssRNA)
RNA: UUUGACAACUGAUCGUUCUUUCUUCUAUAUUAUUACGUUCUUUCUCGAUCAGUUGUCUUU
With B9 the Kd was 538 nM.

B10: Id_ii_S4_P5E.3_K5.2_C5.2_[C-2T]_H5.2_A5.1_F5.1_T5.2_[T11G]_[A12T] (ssRNA)
RNA: UUUGACAACUGAUCGUUCUUUCUUUUAUAUUAUUAGUUUCUUUCUCGAUCAGUUGUCUUU
B10 showed a Kd of 500 nM.

B11: Id_ii_S4_P5E.4_K5.3_C5.2_[C-2G]_H5.3_A5.1_F5.1_T5.2_[A12C] (ssRNA)
RNA: UUUGACAACUGAUCGUUCUUUCUGUACACUUAUUAUCUUCUUUCUCGAUCAGUUGUCUUU
In the case of B11, the Kd is reported as 3 nM.

B12: Id_ii_S4_P5E.3_K5.2_C5.2_[C-2T]_[T-1G]_H5.2_A5.1_F5.1_T5.2_[T11A]_[A12C] (ssRNA)
RNA: UUUGACAACUGAUCGUUCUUUCUUGUAUAUUAUUAACUUCUUUCUCGAUCAGUUGUCUUU
Work on B12 yielded a Kd of 0.672 nM.

B13: Id_ii_S4_P5E.3_K5.2_C5.2_[T-1C]_H5.2_A5.1_F5.1_T5.2_[T11C]_[A12T] (ssRNA)
RNA: UUUGACAACUGAUCGUUCUUUCUCCUAUAUUAUUACUUUCUUUCUCGAUCAGUUGUCUUU
With B13 the Kd was 65.6 nM.

B14: Id_ii_S4_P5E.3_K5.2_C5.2_[C-2G]_H5.2_A5.1_F5.1_T5.2_[T11G]_[A12T] (ssRNA)
RNA: UUUGACAACUGAUCGUUCUUUCUGUUAUAUUAUUAGUUUCUUUCUCGAUCAGUUGUCUUU
In the case of B14, the Kd is reported as 51.7 nM.

B15: Id_ii_S4_P5E.2_K5.1_C5.2_[T-1A]_H5.1_A5.1_F5.1_T5.2_[T11A] (ssRNA)
RNA: UUUGACAACUGAUCGUUCUUUCUCAUGUAUUAUUAAAUUCUUUCUCGAUCAGUUGUCUUU
B15 was tested, and the Kd was 8.86 nM.

B16: Id_ii_S4_P5E.3_K5.2_C5.2_H5.2_A5.1_F5.1_T5.2_[T11C]_[A12G] (ssRNA)
RNA: UUUGACAACUGAUCGUUCUUUCUCUUAUAUUAUUACGUUCUUUCUCGAUCAGUUGUCUUU
In the case of B16, the Kd is reported as 470 nM.

B17: Id_ii_S4_P5E.4_K5.3_C5.2_[C-2T]_[T-1A]_H5.3_A5.1_F5.1_T5.2_[A12C] (ssRNA)
RNA: UUUGACAACUGAUCGUUCUUUCUUAACACUUAUUAUCUUCUUUCUCGAUCAGUUGUCUUU
B17 was tested, and the Kd was over 2300 nM.

B18: Id_ii_S4_P5E.3_K5.2_C5.2_[C-2G]_H5.2_A5.1_F5.1_T5.2_[T11C]_[A12G] (ssRNA)
RNA: UUUGACAACUGAUCGUUCUUUCUGUUAUAUUAUUACGUUCUUUCUCGAUCAGUUGUCUUU
With B18 the Kd was 176 nM.

B19: Id_ii_S4_P5E.4_K5.3_C5.2_[C-2G]_H5.3_A5.1_F5.1_T5.2_[T11A]_[A12T] (ssRNA)
RNA: UUUGACAACUGAUCGUUCUUUCUGUACACUUAUUAAUUUCUUUCUCGAUCAGUUGUCUUU
B19 gave a Kd of 2.81 nM.

B20: Id_ii_S4_P5E.2_K5.1_C5.2_[T-1A]_H5.1_A5.1_F5.1_T5.2_[T11A]_[A12T] (ssRNA)
RNA: UUUGACAACUGAUCGUUCUUUCUCAUGUAUUAUUAAUUUCUUUCUCGAUCAGUUGUCUUU
Work on B20 yielded a Kd of 3.49 nM.

B21: Id_ii_S4_P5E.4_K5.3_C5.2_[C-2T]_[T-1C]_H5.3_A5.1_F5.1_T5.2_[A12T] (ssRNA)
RNA: UUUGACAACUGAUCGUUCUUUCUUCACACUUAUUAUUUUCUUUCUCGAUCAGUUGUCUUU
B21 gave a Kd of over 2300 nM.

B22: Id_ii_S4_P5E.4_K5.3_C5.2_[C-2T]_[T-1A]_H5.3_A5.1_F5.1_T5.2 (ssRNA)
RNA: UUUGACAACUGAUCGUUCUUUCUUAACACUUAUUAUAUUCUUUCUCGAUCAGUUGUCUUU
B22 was tested, and the Kd was 893 nM.

B23: Ia_S1_P5E.1_K5.1_C5.1_H5.1_A5.1_[A7G]_F5.1_T5.1 (ssRNA)
RNA: UCUCUUUGUAUUGUUAUCUCUU
With B23 the Kd was 11.2 nM.

B24: Ib_S1_P5E.1_K5.1_C5.1_H5.1_[A4G]_A5.1_[T5C]_F5.1_T5.1 (ssRNA)
RNA: UCUCUUUGUGCUAUUAUCUCUU
In the case of B24, the Kd is reported as 28 nM.
